Source: patent US20110229476A1 (Bayer, published 2011)

Target: T1, tumor-associated antigen RG1 (Homo sapiens (Human), UniProt Q9BUD6 27-331)
T1 construct: Coated directly on 96-well plates at 1 ug/ml; also called RGI
T1 sequence: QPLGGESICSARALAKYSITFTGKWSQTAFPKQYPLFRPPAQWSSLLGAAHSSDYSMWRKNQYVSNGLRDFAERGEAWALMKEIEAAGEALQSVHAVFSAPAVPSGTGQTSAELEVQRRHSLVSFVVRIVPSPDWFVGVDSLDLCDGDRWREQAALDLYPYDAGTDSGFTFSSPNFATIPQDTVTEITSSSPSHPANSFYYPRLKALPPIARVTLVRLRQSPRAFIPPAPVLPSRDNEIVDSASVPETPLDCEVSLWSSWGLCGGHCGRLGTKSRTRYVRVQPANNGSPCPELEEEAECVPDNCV
Assay: RG1-binding ELISA, RG1 coated on plate, 4-parameter fit
Protocol: RG1-binding ELISA. A bispecific antibody containing Linker 1, anti-RG1 antibody 19G9, and polyclonal nonimmune control human IgG kappa were analyzed for binding to RG-1. Curve fitting of the data was performed using a 4-parameter equation with the Solver function in Microsoft Excel.
Ninety-six well plates were coated with RG1 (1 μg/ml) by overnight incubation, and the plates were then washed (5×) with PBS containing 0.5% Tween-20. Samples and controls (serially diluted) were added to the wells and incubated for 1 hr, followed by washes (5×) with PBS containing 0.5% Tween-20. Horserandish peroxidase (HRP)-conjugated anti-human IgG or HRP-conjugated anti-human Fab were diluted in PBS (1:5000) and added to each well. Following a 1 hr incubation, the plates were washed again. Amplex Red (10 μg/ml) was added to each well, and the signal was read using a plate reader. The data was analyzed using Softmax (Molecular Devices, Sunnyvale, Calif.).

IC50: 1.4 nM
B1: anti-RG1 IgG 19G9 (antibody, V domains shown)
VH: QVQLVQSGGGLVQPGGSLRLSCAGSGFTFSSYVMHWLRQAPGKGLEWVSVIGTGGVTHYADSVKGRFTISRDNAKNSLYLQMNSLRAEDTAVYYCARWGYYGSGSYENDAFDIWGQGTMVTVSS
VL: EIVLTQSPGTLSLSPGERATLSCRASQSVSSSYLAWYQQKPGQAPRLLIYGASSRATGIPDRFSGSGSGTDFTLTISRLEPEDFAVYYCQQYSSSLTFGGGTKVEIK
